Assay results from paper PMC11573789.

Columns and labels:
Assay in all cases: NanoBiT (ratiometric protein-fragment complementation assay in live yeast)
Conditions in all cases: four experimental replicates; read off a plot
[1] = target: Eft2
[2] = target: Caf40
[3] = target: Nmd2/Upf2 [S. cerevisiae]

Row | Substance | other: NanoBiT ratio (log2 scale) [1] | other: NanoBiT ratio (log2 scale) [2] | screen value [3]
1 | Upf1-SmBiT (from UniProt P30771) C122S | 1.1 log2 | 1.4 log2 | 
2 | Upf1-SmBiT mutant C122S [S. cerevisiae] / Nmd2/Upf2 [S. cerevisiae] chain 1 C122S |  |  | -2.5 log2
